Source: patent US20080009025A1, “PROTEIN KINASE REGULATION” (priority 1999, published 2008)
Changes are numbered by the printed parent chain.

Experiments:
PDK1-L155E = target: T1, PDK1-L155E (Homo sapiens, UniProt O15530, L155E); experiment: Phosphorylation of AGC kinase substrates by PDK1 (32P, PhosphoImager); format: biochemical; details: PKB[S473D] rate by PDK1-wt = 100; for Relative phosphorylation of PDK1 substrates PDK1-L155E +PIFtide: with PIFtide; for Relative phosphorylation of PDK1 substrates PDK1-L155E —: without PIFtide
T1 construct: made in house; host or cells: human embryonic kidney 293 cells
T1 sequence (O15530 1-556 L155E): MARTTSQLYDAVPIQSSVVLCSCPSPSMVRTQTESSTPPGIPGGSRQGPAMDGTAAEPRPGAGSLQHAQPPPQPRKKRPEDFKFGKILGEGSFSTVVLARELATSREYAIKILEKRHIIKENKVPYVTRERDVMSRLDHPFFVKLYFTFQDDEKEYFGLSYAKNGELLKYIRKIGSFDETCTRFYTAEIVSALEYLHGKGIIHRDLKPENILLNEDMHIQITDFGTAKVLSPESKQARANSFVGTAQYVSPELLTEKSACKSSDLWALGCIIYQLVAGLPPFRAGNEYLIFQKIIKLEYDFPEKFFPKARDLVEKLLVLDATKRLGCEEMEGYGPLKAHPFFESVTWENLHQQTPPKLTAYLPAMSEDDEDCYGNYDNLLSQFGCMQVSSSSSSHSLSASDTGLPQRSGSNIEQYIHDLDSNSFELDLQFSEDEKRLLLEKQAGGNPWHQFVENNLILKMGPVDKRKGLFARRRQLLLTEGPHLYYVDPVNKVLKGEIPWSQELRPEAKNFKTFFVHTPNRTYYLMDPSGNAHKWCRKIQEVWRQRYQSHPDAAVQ
Protocol: (§1) Phosphorylation of AGC kinase substrates by PDK1. The phosphorylation of PDK1 substrates was performed in a final volume of 20 μl in a buffer containing 50 mM Tris-HCl pH 7.5, 0.1% (by vol) 2-mercaptoethanol, 10 mM magnesium chloride, 100 μM [γ-^32P]ATP (˜1000 c.p.m./pmol), 0.5 μM microcystin-LR, 0.6 μM AGC kinase substrate and 0.6 to 30 nM wild type PDK1 or the indicated mutant of PDK1.
(§2) Relative phosphorylation of PDK1 substrates. PDK1 substrates were phosphorylated in vitro, subjected to SDS-PAGE, and radioactivity associated with the bands measured using a Phospho-Imager and known amounts of ATP as standard. The phosphorylation rate of PKB[S473D] in the presence of PtdIns (3,4,5)P3 was 2.6 mol/mol PDK1/min and was taken as the relative value of 100. Average values from a representative experiment performed in duplicates are shown.

PDK1-wt = target: T2, PDK1-wt (Homo sapiens, UniProt O15530); experiment: as above; format: biochemical; details: for Relative phosphorylation of PDK1 substrates PDK1-wt +PIFtide: with PIFtide; for Relative phosphorylation of PDK1 substrates PDK1-wt +PIFtide / Relative phosphorylation of PDK1 substrates PDK1-wt —: PKB[S473D] rate with PtdIns(3,4,5)P3 = 100; for Relative phosphorylation of PDK1 substrates PDK1-wt —: without PIFtide
T2 construct: made in house; host or cells: human embryonic kidney 293 cells
T2 sequence (O15530 1-556): T1 sequence (O15530 1-556 L155E) with E155L
Protocol: as §1, §2

PDK1 [1] = details: ref [22]; cited from earlier work
PDK1 [2] = target: T3, PDK1 (Homo sapiens, UniProt O15530); experiment: Phosphorylation of GST-p70 S6K-T2 by PDK1 in vitro (32P autoradiography); format: biochemical; design: made in house; host or cells: 293 cells or E. coli; details: GST fusion 1.5 μM; GST-PDK1 50 nM
T3 sequence (O15530 1-556): T1 sequence (O15530 1-556 L155E) with E155L
Protocol: FIG. 1. PIF prevents PDK1 from phosphorylating p70 S6K in vitro. GST-p70 S6K lacking the C-terminal 104 amino acids (GST-p70 S6KT2) (1 μg) was incubated for 30 min at 30° C. with Mg [γ^32P] ATP and GST-PDK1 (50 nM) in the presence or absence of either wild type (wt) GST-PIF or D978A GST-PIF (1.5 μM), or the indicated PIF peptides (4 μM) in a final volume of 20 μl. The reactions were terminated by making the solutions 1% in SDS, the samples subjected to SDS-polyacylamide gel electrophoresis, and the phosphorylation assessed by autoradiography of the gel. The position in the gel where GST-p70 S6KT2 (73 kDa) migrates is indicated with an arrow. The only other ^32P-labelled protein on the gel which is not shown, corresponded to autophosphorylation of PDK1 and contained ˜10 fold lower levels of ^32P-radioactivity than that of the GST-p70 S6T2 phosphorylated by PDK1 in the absence of PIF. A high amount of PDK1 is used in this experiment to achieve a near maximal phosphorylation of GST-p70 S6T2. If the reactions were carried out at a 10-fold lower concentration of PDK1 under conditions where the phosphorylation of GST-p70 S6T2 by PDK1 is linear with time and the amount of substrate used, then PIF still prevented the phosphorylation of GST-p70 S6T2 (data not shown). wt indicates wild type and PSer indicates phospho-serine. The results of a duplicate experiment for each condition are shown, and similar findings were obtained in five separate experiments.
Preparation of insect cell His-p70 S6K. p70 S6K with a His-epitope tag at its N-terminus lacking the carboxy terminal 104 residues is termed p70 S6K-T2. In order to prepare wild type and the mutant 412E-p70 S6K-T2 the cDNA for these constructs was amplified by PCR from the pMT2 vector encoding these forms of p70 S6K [6] using the following oligonucleotides: 5′-AGGATCCACCATGCACCATCACCATCACCATATGAGGCGAGCAAGGAGGCGG-3′ and 5′-GCGGCCGCTCAACTTTCAAGTACAGATGGAGCC-3′. The PCR products were then subcloned into the BamH1/Not1 sites of the pFASTBAC 1 vector and this vector was used to generate recombinant baculovirus using the Bac-to-Bac system (Life Technologies Inc). The resulting viruses, encoded p70 S6K-T2 or 412E-p70 S6K-T2 with an N-terminal hexahistidine sequence, and was used to infect Sf21 cells (1.5×10^6/m) at a multiplicity of infection of 5. The infected cells were harvested 72 h post-infection and the His-p70 S6K proteins purified by Ni^2+/NTA (nitrilotriacetic acid)-agarose chromatography as described previously for PKBβ [25]. […]

p70 S6K = experiment: IGF1-induced activation and Thr412 phosphorylation of HA-p70 S6K in co-transfected 293 cells; format: cell-based, human; details: 293 cells
Protocol: FIG. 3. PIF inhibits p70 S6K activation and phosphorylation at Thr252 and Thr412. 293 cells were co-transfected with constructs expressing the wild type (wt) full length HA-p70 S6K (A) or the full length HA-T412E p70 S6K (B) with either GST-PIF, GST-F977A-PIF, or GST. 24 h post transfection the cells were serum starved for 16 h and them stimulated for 40 min with 100 nM IGF 1. The cells were lysed and HA-p70 S6K was immunoprecipitated and assayed as described in methods. Protein from each lysate (10 μg for the HA blots or 20 μg for the T412-P blot) was electrophoresed on a 10% SDS/polyacrylamide gel and immunoblotted using HA-antibody or the T412-P antibody. The T412-P antibody was incubated with either the synthetic peptide (10 μg/ml) corresponding to residues 401 to 418 of p70 S6K phosphorylated at Thr412 (phosph-412E peptide), or the unphosphorylated peptide (de-phospho-Thr412 peptide). The T412-P antibody consistently recognises a protein termed “non specific band” in cell lysates which migrate at (75 kDa) derived from non transfected and transfected cells. […] It is not co-immunoprecipitated with HA-p70 S6K (date not shown). The HA-p70 S6K activities shown are the average ±SEM for a single experiment carried out in triplicate. Similar results were obtained in 8 separate experiments (A) and 2 experiments (B). The immunoblotting was carried out in 3 separate experiments with similar results.
Transient Transfection Experiments. The DNA constructs encoding for the wild type and mutant forms of HA-p70 S6K in the pMT2 vector used in this study have been described previously. […] The constructs used to express GST-PIF and the mutant GST-F977A-PIF [22] are in the pEBG2T vector. The empty pEBG2T vector was used to express GST protein in control experiments. DNA constructs used in this study were purified from bacteria using the Qiagen plasmid Mega kit according to the manufacturer's protocol.
293 cells cultured on 10 cm diameter dishes in Dulbecco's Modified Eagle's Medium containing 10% (by vol) foetal bovine serum, were transfected with 2 μg of DNA construct encoding either wild type or mutant HA-p70 S6K or HA-PKBα, and 10 μg of DNA construct encoding either GST-PIF, GST-F977A-PIF, GST, Myc-PDK1, kinase-dead Myc-PDK1, or the empty pCMV5 vector using a modified calcium phosphate method. 24 h post transfection the cells were deprived of serum for 16 h, and exposed to IGF1 (100 nM) for the time indicated. The cells were lysed in 1 ml of lysis buffer (50 mM Tris/HCl pH 7.5, 1 mM EDTA, 1 mM EGTA, 1% (by vol) Triton X-100, 1 mM sodium orthovanadate, 10 mM sodium β-glycerophosphate, 50 mM NaF, 5 mM sodium pyrophosphate, 1 μM microcystin-LR, 0.27 M sucrose and protease cocktail tablets), cleared by centrifugation, and 50 μg of protein was subjected to immunoprecipitation with anti HA monoclonal antibody. The protein concentrations of the lysates were determined by the Bradford method.
Kinase assays. The HA-p70 S6K or HA-PKBα immunoprecipitates were washed and assayed for kinase activity using the peptide Crosstide (GRPRTSSFAEG) as described previously for PKBα [28]. One unit of activity, U, was that amount which catalysed the phosphorylation of 1 nmol of substrate in one minute.
Immunoblotting for dephosphorylated and Thr412-phosphorylated p70 S6 kinase. Cell lysates were made 1% SDS and the indicated amounts of protein were subjected to SDS/Polyacrylamide gel electrophoresis, subsequently transferred to nitrocellulose and immunoblotted using the indicated monoclonal antibody or the T412-P phospho-specific antibody (0.4 μg/ml) in 50 mM Tris/HCl pH7.5, 0.15M NaCl, 0.5% (by vol) Tween and 10% (by mass) skimmed milk. Detection was performed using the enhanced chemiluminescence reagent (Amersham Pharmacia Biotech).

Substance	Relative phosphorylation of PDK1 substrates PDK1-L155E +PIFtide (PDK1-L155E)	Relative phosphorylation of PDK1 substrates PDK1-L155E — (PDK1-L155E)	phosphorylation rate (PDK1-wt; in the presence of PtdIns (3,4,5)P3)	Relative phosphorylation of PDK1 substrates PDK1-wt +PIFtide (PDK1-wt)	Relative phosphorylation of PDK1 substrates PDK1-wt — (PDK1-wt)	affinity for PDK1 compared with wild type PIF (PDK1 [1])	effect on phosphorylation of GST-p70 S6K-T2 by PDK1 (PDK1 [2])	HA-p70 S6K activity after IGF1 stimulation (p70 S6K; 100 nM IGF1 40 min)	IGF1-induced phosphorylation of HA-p70 S6K at Thr412 (p70 S6K; T412-P antibody)
FL-PKB 473D: full length PKBα with Ser473 mutated to Asp	162	178	2.6 mol/mol PDK1/min	85.4	100	–	–	–	–
FL-PKB: full length GST-tagged PKBα	35	35	–	19.3	28	–	–	–	–
GST-D978A-PIF: mutant GST-PIF in which the amino acid equivalent to Asp978 in PRK2 is mutated to Ala	–	–	–	–	–	markedly reduced affinity	poorly inhibited	–	–
GST-F977A-PIF: mutant form of GST-PIF which interacts with PDK1 weakly	–	–	–	–	–	–	–	substantially activated	still occurred but a lower level
